Data published in article PMC4132801, “A Structural and Biochemical Model of Processive Chitin Synthesis” (The Journal of Biological Chemistry, 2014).

T1: SmNodC (Sinorhizobium meliloti, UniProt P04341)
T1 construct: gene nodC; full-length (1-426), C-terminal mCherry-His fusion from pEXmCherry, E. coli BL21(DE3) C43 membrane fraction, not purified
T1 sequence (P04341 1-426): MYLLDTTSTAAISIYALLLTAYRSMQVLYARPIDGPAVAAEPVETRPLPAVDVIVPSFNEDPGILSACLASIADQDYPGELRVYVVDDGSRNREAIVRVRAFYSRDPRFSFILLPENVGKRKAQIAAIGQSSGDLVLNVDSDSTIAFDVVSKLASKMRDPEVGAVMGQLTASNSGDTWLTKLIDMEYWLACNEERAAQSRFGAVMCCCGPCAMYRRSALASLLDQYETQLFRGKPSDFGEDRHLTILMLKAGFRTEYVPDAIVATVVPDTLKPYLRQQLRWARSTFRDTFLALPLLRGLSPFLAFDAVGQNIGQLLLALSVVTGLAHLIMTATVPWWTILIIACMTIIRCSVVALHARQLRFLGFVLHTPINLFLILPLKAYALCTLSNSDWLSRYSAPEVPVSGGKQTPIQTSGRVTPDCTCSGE


Experiments:
Assay in all cases: coupled fluorogenic assay: chitinase B releases 4MU from 4MU-chitooligosaccharide product
SmNodC = target: T1, SmNodC; assay type: biochemical
Description: coupled fluorogenic assay: chitinase B releases 4MU from 4MU-chitooligosaccharide product on SmNodC | Nikkomycin Z is a competitive inhibitor with the substrate UDP-GlcNAc, with a Ki of […]

[1] = substrate: CC(=O)N[C@H]1[C@H](Oc2ccc3c(C)cc(=O)oc3c2)O[C@H](CO)[C@@H](O)[C@@H]1O; assay type: biochemical, Sinorhizobium meliloti; details: acceptor substrate, excess UDP-GlcNAc as co-substrate, 10 mM MgCl2, pH 7.5, 250 mM NaCl, 20 °C, E. coli membrane fraction
[2] = substrate: CC(=O)N[C@H]1[C@@H](OP(=O)(O)OP(=O)(O)OC[C@H]2O[C@@H](n3ccc(=O)[nH]c3=O)[C@H](O)[C@@H]2O)O[C@H](CO)[C@@H](O)[C@@H]1O; assay type: biochemical, Sinorhizobium meliloti; details: excess 4MU-GlcNAc as co-substrate, 10 mM MgCl2, pH 7.5, 250 mM NaCl, 20 °C, E. coli membrane fraction

Row | Ki (SmNodC) [nM] | Molecule | Km [1] [µM] | Km [2] [µM]
1 | 250 | C[C@@H]([C@H](N)C(=O)N[C@H](C(=O)O)[C@H]1O[C@@H](n2ccc(=O)[nH]c2=O)[C@H](O)[C@@H]1O)[C@H](O)c1ccc(O)cn1 [Nikkomycin Z] | – | –
2 | – | SmNodC (Sinorhizobium meliloti 1021) (protein, full-length (1-426), C-terminal mCherry-His fusion from pEXmCherry, E. coli BL21(DE3) C43 membrane fraction, not purified) MYLLDTTSTAAISIYALLLTAYRSMQVLYARPIDGPAVAAEPVETRPLPAVDVIVPSFNEDPGILSACLASIADQDYPGELRVYVVDDGSRNREAIVRVRAFYSRDPRFSFILLPENVGKRKAQIAAIGQSSGDLVLNVDSDSTIAFDVVSKLASKMRDPEVGAVMGQLTASNSGDTWLTKLIDMEYWLACNEERAAQSRFGAVMCCCGPCAMYRRSALASLLDQYETQLFRGKPSDFGEDRHLTILMLKAGFRTEYVPDAIVATVVPDTLKPYLRQQLRWARSTFRDTFLALPLLRGLSPFLAFDAVGQNIGQLLLALSVVTGLAHLIMTATVPWWTILIIACMTIIRCSVVALHARQLRFLGFVLHTPINLFLILPLKAYALCTLSNSDWLSRYSAPEVPVSGGKQTPIQTSGRVTPDCTCSGE | 1600 ± 400 | 90 ± 15
